# Laboratory results from US20250034275A1 (CHIA TAI TIANQING PHARMACEUTICAL GROUP, published 2025).
# Changes are numbered by the printed parent chain.
# T1: human Trop-2 (on the surface of human cell lines) (human, UniProt P09758 27-323)
# T1 sequence: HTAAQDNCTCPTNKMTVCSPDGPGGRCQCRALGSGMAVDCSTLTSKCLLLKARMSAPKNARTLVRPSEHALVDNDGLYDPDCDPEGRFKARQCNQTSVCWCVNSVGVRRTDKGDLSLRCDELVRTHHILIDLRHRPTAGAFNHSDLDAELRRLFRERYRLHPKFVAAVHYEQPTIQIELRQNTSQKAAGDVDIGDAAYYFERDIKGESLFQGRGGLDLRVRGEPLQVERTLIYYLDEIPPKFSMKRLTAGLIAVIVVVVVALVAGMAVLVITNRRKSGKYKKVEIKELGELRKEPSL
# T2: human Trop-2-His (human, UniProt P09758 27-274, limits assumed)
# T2 construct: by analogy with the macaque construct it is probably the extracellular domain with a His tag; also called Trop-2-His protein
# T2 sequence: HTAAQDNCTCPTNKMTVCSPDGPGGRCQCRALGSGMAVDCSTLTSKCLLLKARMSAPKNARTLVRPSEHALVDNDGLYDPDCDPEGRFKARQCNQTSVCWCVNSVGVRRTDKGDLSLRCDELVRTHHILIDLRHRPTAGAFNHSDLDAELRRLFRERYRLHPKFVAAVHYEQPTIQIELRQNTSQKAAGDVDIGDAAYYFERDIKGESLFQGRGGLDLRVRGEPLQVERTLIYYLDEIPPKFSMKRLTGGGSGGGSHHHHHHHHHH
# T3: Macaque Trop-2-His (macaque, UniProt P09758 27-274 (human entry))
# T3 construct: Extracellular domain of macaque Trop-2 recombinantly linked to His; also called monkey Trop-2-His protein; monkey Trop-2
# T3 chain: T2 sequence with M36V, S67N, I204V
# B1: hz-Ab2-2.4 (antibody, human IgG1, kappa, V domains shown)
# VH: QVQLQESGPGLVKPSETLSLTCTVSGFSLTYYGIDWIRQPPGKGLEWIGVIWGSGNTKYNSALKSRVTISKDNSKSQVYLKLSSVTAADTAVYYCARFYEGFAYWGQGTLVTVSS
# VL: DIQMTQSPSSLSASVGDRVTITCRASQDINSYLSWFQQKPGKAPKTLIYRANRLVEGVPSRFSGSGSGQDFTLTISSLQPEDFATYYCLQYDEYPLTFGQGTKVEIKR
# notes: Humanized antibody
# B2: hz-Ab21-2.1 (antibody, human IgG1, kappa, V domains shown)
# VH: EVQLVESGGGLVKPGGSLRLSCAASGFTLRNYGVHWVRQAPGKGLEWVGVIWSSGTTDYAAPVKGRFTISKDNSKNTLYLQMNSLKTEDTAVYYCTRDGDYDYYTMDYWGQGTLVTVSS
# VL: EIVLTQSPATLSLSPGERATLSCRASKSVSTSAYSYIHWYQQKPGQPPRLLIYLTSNLESGIPARFSGSGSGTDFTLTISSLEPEDFAVYYCQHSRELPYTFGQGTKVEIKR
# notes: Humanized antibody
# B3: ch-Ab35 (antibody, human IgG1, kappa, V domains shown)
# VH: EVQLQQSGPDLVRPGASVKLSCKASGYTFTSSDINWVKQRPGQGLEWIGWIYPRDGSKKYNEKFKGKATLTVDTSSSTAYMEVHSLTSEDSAVYFCATRFATVVSNYGLDPWGQGTSVTVSS
# VL: AIVLTQSPAIMSASPGEKVTMTCSASSSVNYIYWYQRKPGSSPRLLIYDTSNLASGVPVRFSGSGSGTSYSLTISRMEAEDAATYYCQQWNSYPLTFGAGTKLELKR
# notes: Mouse VH/VL on human IgG1 and human kappa constant regions; also called chimeric antibody of Ab35
# B4: ch-Ab21 (antibody, human IgG1, kappa, V domains shown)
# VH: EVQLKQSGPGLVQPSQSLSITCTVSGFSLRNYGVHWVRQSPGKGLEWLGVIWSSGTTDYNAAFISRLSITKDNSKSQVFFKMNSLQVDDTAIYNCARDGDYDYYTMDYWGQGTSVTVSS
# VL: AIVLTQSPASLAVSLGQRATISCRASKSVSTSAYSYIHWYQQKPGQPPKLLIYLTSNLESGVPARFSGSGSGTDFTLNIHPVEEEDAATYYCQHSRELPYTFGGGTKLEIKR
# notes: Mouse VH/VL on human IgG1 and human kappa constant regions; also called chimeric antibody of Ab21
# B5: hz-Ab21-1.1 (antibody, human IgG1, kappa, V domains shown)
# VH: B2 VH
# VL: B2 VL with P47A
# notes: Humanized antibody
# B6: hz-Ab21-1.2 (antibody, human IgG1, kappa, V domains shown)
# VH: B2 VH with A60N, P62A, V63F, K64I, G65S
# VL: B2 VL with P47A
# notes: Humanized antibody
# Target: T1, human Trop-2 (on the surface of human …)
# Assay: cell-based or functional assay
"ADCC reporter (Jurkat-CD16a v158-NFAT-luciferase), target cell H322, EC50","ADCC reporter (Jurkat-CD16a v158-NFAT-luciferase), target cell HCC1806, EC50",Binder
0.66 nM,1.51 nM,B1
0.21 nM,0.39 nM,B2
0.02 nM,0.04 nM,B3
0.04 nM,0.08 nM,B4

# Target: T1, human Trop-2 (on the surface of human …)
# Assay: cell-based or functional assay
# Remark: another data set of the same source
Binder,"ADCC, PBMC killing (LDH), H322, EC50","ADCC, PBMC killing (LDH), H322, Maximum killing (%)","ADCC, PBMC killing (LDH), HCC1806, EC50","ADCC, PBMC killing (LDH), HCC1806, Maximum killing (%)"
B1,0.07 nM,46.7%,0.15 nM,33.3%
B2,0.02 nM,44.5%,0.12 nM,32.2%
B3,0.01 nM,51.9%,0.02 nM,38%
B4,0.13 nM,54%,0.03 nM,40.3%

# Target: T1, human Trop-2 (on the surface of human …)
# Assay: flow cytometry, HCC38 cells
# Method: (§1) Tumor cells expressing Trop-2 were prepared into a cell suspension (0.5-1×10⁶ cells/mL) using the FACS buffer (Miltenyi Biotec, 130-091-221), and the cell suspension was added to a 96-well V-bottom plate at 100 μL/well. After centrifugation and removal of the supernatant, the test antibodies diluted with the FACS buffer to different concentrations (0.006 nM-100 nM) were each added at 50 μL/well. The mixture was incubated in the dark in a 4° C. refrigerator for 1 h. The plate was then washed 3 times with the FACS buffer by centrifugation at 300 g, and Alexa Fluor 488 goat anti-human IgG (H+L) (Bio-legend, 409304, 1:500 dilution) at working concentration was added. The mixture was incubated in the dark in a 4° C. refrigerator for 40 min. The plate was then washed 3 times with the FACS buffer by centrifugation at 300 g, the geometric mean fluorescence intensity (MFI) was measured on a Sartorius iQue3 flow cytometer, and the binding EC₅₀ values of the antibodies for tumor cells with different Trop-2 expression levels were calculated
row,EC50,Binder
1,0.45 nM,B1
2,0.55 nM,B5
3,0.66 nM,B6
4,0.64 nM,B2
5,0.45 nM,B3
6,0.64 nM,B4

# Target: T1, human Trop-2 (on the surface of human …)
# Assay: flow cytometry, HCC1806 cells
# Method: as §1
row,EC50,Binder
1,1.23 nM,B1
2,0.64 nM,B5
3,1.23 nM,B6
4,0.63 nM,B2
5,0.38 nM,B3
6,0.65 nM,B4

# Target: T1, human Trop-2 (on the surface of human …)
# Assay: flow cytometry, OVCAR-3 cells
# Method: as §1
row,EC50,Binder
1,0.62 nM,B5
2,0.67 nM,B6
3,0.68 nM,B2
4,0.37 nM,B3
5,1.02 nM,B4

# Target: T2, human Trop-2-His
# Assay: ELISA, plate-coated human Trop-2-His
# Method: (§2) After the liquid was discarded, 2% BSA (SIGMA, B2064-100G) diluted with PBS was added at 300 μL/well for blocking, and the mixture was incubated at 37° C. for 2 h. After the blocking was completed, the blocking buffer was discarded, the plate was washed 3 times with PBST buffer (pH 7.4 PBS containing 0.1% tween-20), the antibody solution diluted in a gradient was added at 100 μL/well, and the mixture was incubated at 37° C. for 1 h. After the incubation was completed, the plate was washed 3 times with PBST, the goat anti-human IgG (H+L) (JacksonImmunoResearch, 109-035-098, 1:5000 dilution) was added at 100 μL/well, and the mixture was incubated at 37° C. for 1 h. After the plate was washed 3 times with PBST, a TMB chromogenic substrate (TIANGEN, PA107-01) was added at 100 μL/well. The mixture was incubated at room temperature for 10-15 min, and then 1 M H₂SO₄ was added at 50 μL/well to terminate the reaction. The absorbance values at 450 nm were taken using a microplate reader. The binding curves of antibodies for antigen were fitted using software, and the EC₅₀ values were calculated.
row,EC50,Binder
1,0.1 nM,B1
2,0.162 nM,B5
3,0.248 nM,B6
4,0.214 nM,B2
5,0.043 nM,B3
6,0.165 nM,B4

# Target: T3, Macaque Trop-2-His
# Assay: ELISA, plate-coated macaque Trop-2-His
# Method: as §2, with “times with the PBST buffer” for “times with PBST buffer”
row,EC50,Binder
1,0.07 nM,B1
2,0.098 nM,B5
3,0.086 nM,B6
4,0.064 nM,B2
5,0.048 nM,B3
6,0.093 nM,B4

# Target: T2, human Trop-2-His
# Assay: SPR (Biacore 8K), antibody captured, Trop-2-His as analyte
# Source text: The affinity of antibodies for human Trop-2-His was detected in the form of antibody capturing. The antibody was affinity-captured by a CM5 (Cat. #29149603, GE) biosensor chip conjugated with an anti-human IgG antibody (from human antibody capture kit, Cat. #29234600, GE), then the antigen human Trop-2-His flowed on the surface of the chip, and a Biacore 8K instrument was used for detecting reaction signals in real time to obtain association and dissociation curves. After dissociation was completed for each assay cycle, the chip was washed clean and regenerated with a regeneration buffer, 3M MgCl₂ (from human antibody capture kit, Cat. #29234600, GE). The association and dissociation curves were collected by Biacore 8K Control Software 3.0 in real time, and the data were analyzed by Biacore Insight Evaluation Software 3.0. The data were fitted using a Langmuir 1:1 model after double subtraction (namely, in each cycle, the contrast channel signal was subtracted from the experimental channel signal, and the sample signal was subtracted from the blank signal), and the association rate constant Ka, the dissociation rate constant Kd, and the equilibrium constant KD were calculated.
Kd,koff,kon,Binder
11.6 nM,0.00483 s⁻¹,415000 M⁻¹ s⁻¹,B1
1.2 nM,0.000514 s⁻¹,429000 M⁻¹ s⁻¹,B5
0.973 nM,0.000438 s⁻¹,450000 M⁻¹ s⁻¹,B6
1.38 nM,0.000559 s⁻¹,404000 M⁻¹ s⁻¹,B2
